Experiment in all cases: cell-based or functional assay
Test [1] addresses Env of HIV-1 strain 231965.c1 (HIV-1).
In test [2] the target is Env of HIV-1 strain 250-4 (HIV-1).
Test [3] concerns the target Env of HIV-1 strain 251-18 (HIV-1).
Test [4] has as its target Env of HIV-1 strain 3016.v5.c45 (HIV-1).
Test [5] addresses Env of HIV-1 strain 3365.v2.c20 (HIV-1).
Test [6] addresses Env of HIV-1 strain 3415.v1.c1 (HIV-1).
Test [7] deals with Env of HIV-1 strain Du172.17 (HIV-1).
For test [8], the target named is Env of HIV-1 strain H086.8 (HIV-1).
The target of test [9] is Env of HIV-1 strain PVO.4 (HIV-1).
The target in test [10] is Env of HIV-1 strain R1166.c1 (HIV-1).
Test [11] addresses Env of HIV-1 strain REJO4541.67 (HIV-1).
For test [12], the target named is Env of HIV-1 strain X1254_c3 (HIV-1).
The target of test [13] is Env of HIV-1 strain YU2.DG (HIV-1).
Test [14] has as its target Env of HIV-1 strain ZM109F.PB4 (HIV-1).
Test [15] deals with Env of HIV-1 strain ZM53M.PB12 (HIV-1).
For a further test, the target named is Env of MuLV.

Neutralization IC50 data for 6 molecules are collected here from US20180171001A1.

Where only a bound is given, the exact number is not on record here.

B1: γ20κ19 (antibody, V domains shown)
VH: QIHLVQSGTEVKKPGSSVAVSCKAYGVNTFGLYAVNWVRQAPGQSLEYIGQIWRWKSSASHDFRGRVIISAVDLTGSSPPISSLEIKNLTSDDTAVYFCTATSTPDYWSGLHHDGVMAFSSWGQGTLISVSA
VL: DIQMTQSPSTLSASVGDTVRISCRASQSITGGWLAWYHQRPGKAPRLLIYRGSRLLGGVPSRFSGSAAGTGFTLTIANLQAEDFGTFYCQQYDTYPGTFGQGTKVEVKR
For B1, the neutralization IC50 in [1], in test [2], in test [3], in test [4], in test [5] and in test [6] was more than 15 µg/mL in each case. The neutralization IC50 was more than 15 µg/mL in [7]; more than 15 µg/mL in test [8]; more than 15 µg/mL in [9]; more than 15 µg/mL in test [10]; more than 15 µg/mL in [11]; 2.99 µg/mL in [12]. Also, the neutralization IC50 (in [13]; in test [14]; in test [15]; with Env of MuLV) was more than 15 µg/mL throughout.

B2: γ44κ61 (antibody, V domains shown)
VH: QIHLVQSGTEVKKPGSSVTVSCKAYEVNTFGLYAVNWVRQAPGQSLEYIGQIWRWKSSASHHFRGRVLISAVDLTGSSPPISSLEIKNVTSDDTAVYFCTTTSTHDKWSGLHHDGVMAFSSWGQGTLISVSA
VL: DIQMTQSPSTLSASIGDTVRISCRASQSITGNWVAWYHQRPGKAPRLLIYRGAALLGGVPSRFSGSAAGTDFTLTIGNLQAEDFGTFYCQQYDTYPGTFGQGTKVEVKR
As for B2, the neutralization IC50 in test [1], in [2], in test [3], in [4], in test [5] and in [6] was more than 15 µg/mL in each case. The neutralization IC50 in [7], in [8], in test [9], in test [10], in [11] and in test [12] was more than 15 µg/mL in each case. Further, the neutralization IC50 (in test [13]; in test [14]; in test [15]; in the test with Env of MuLV) was more than 15 µg/mL each time.

B3: γ52κ61 (antibody, V domains shown)
VH: QIHLVQSGTEVKKPGSSVTVSCKAYGVNTFGLYAVNWVRQAPGQSLEYIGQIWRWKSSASHHFRGRVLISAVDLTGSSPPISSLEIKNLTSDDTAVYFCTTTSTYDRWSGLHHDGVMAFSSWGQGTLISVSA
VL: DIQMTQSPSTLSASIGDTVRISCRASQSITGNWVAWYHQRPGKAPRLLIYRGAALLGGVPSRFSGSAAGTDFTLTIGNLQAEDFGTFYCQQYDTYPGTFGQGTKVEVKR
As for B3, the neutralization IC50 in test [1] is 0.516 µg/mL; in test [2], more than 15 µg/mL; in [3], 0.273 µg/mL; in test [4], 0.182 µg/mL; in [5] it was more than 15 µg/mL; in test [6], 0.681 µg/mL. Also, the neutralization IC50 was 7.28 µg/mL in test [7]; 0.242 µg/mL in [8]; 0.078 µg/mL in test [9]; 1.64 µg/mL in test [10]; 0.115 µg/mL in test [11]; 2.57 µg/mL in test [12]. The neutralization IC50 in test [13] is 0.408 µg/mL; in [14], more than 15 µg/mL; in test [15], 8.44 µg/mL; with Env of MuLV it was more than 15 µg/mL.

B4: γ46κ61 (antibody, V domains shown)
VH: QIHLVQSGTEVKKPGSSVTVSCKAYGVNTFGLYAVNWVRQAPGQGLEYIGQIWRWKSSASHHFRGRVLISAVDLTGSSPPISSLEIKNVTSDDTAVYFCTTTSTYDKWSGLHHDGVVAFSSWGQGTLISVSA
VL: DIQMTQSPSTLSASIGDTVRISCRASQSITGNWVAWYHQRPGKAPRLLIYRGAALLGGVPSRFSGSAAGTDFTLTIGNLQAEDFGTFYCQQYDTYPGTFGQGTKVEVKR
On to B4, for which the neutralization IC50 in test [1] is 1.58 µg/mL; in test [2], more than 15 µg/mL; in test [3] it was 1.84 µg/mL; in test [4] it was 0.383 µg/mL; in test [5], more than 15 µg/mL; in test [6] it was more than 15 µg/mL. Also, the neutralization IC50 in test [7] was 26.1 µg/mL; in [8], 0.584 µg/mL; in test [9] it was 0.244 µg/mL; in test [10], 2.58 µg/mL; in [11], 0.378 µg/mL; in test [12], 4.46 µg/mL. Moreover, the neutralization IC50 in test [13] is 0.918 µg/mL; in [14], more than 15 µg/mL; in [15], 27.5 µg/mL; with Env of MuLV, more than 15 µg/mL.

B5: γ15κ61 (antibody, V domains shown)
VH: QIHLVQSGTEVKKPGSSVTVSCKAYGVNTFGLYAVNWVRQAPGQSLEYIGQIWRWKSSASHHFRGRVIISAVDLTGSSPPISSLEIKNLTSDDTAVYFCTTASTYDKWSGLHHDGVMAFSSWGQGTLISVSA
VL: DIQMTQSPSTLSASIGDTVRISCRASQSITGNWVAWYHQRPGKAPRLLIYRGAALLGGVPSRFSGSAAGTDFTLTIGNLQAEDFGTFYCQQYDTYPGTFGQGTKVEVKR
For B5, the neutralization IC50 in test [1] was 5.23 µg/mL; in test [2] it was more than 15 µg/mL; in test [3], 4.66 µg/mL; in test [4], 1.21 µg/mL; in test [5], more than 15 µg/mL; in [6] it was more than 15 µg/mL. The neutralization IC50 is more than 15 µg/mL in test [7]; more than 15 µg/mL in [8]; 1.23 µg/mL in test [9]; 6.55 µg/mL in [10]; 2.03 µg/mL in [11]; 10.9 µg/mL in test [12]. In addition, the neutralization IC50 in [13] is 3.44 µg/mL; in test [14] it was more than 15 µg/mL; in test [15], more than 15 µg/mL; with Env of MuLV, more than 15 µg/mL.

B6: γ59κ61 (antibody, V domains shown)
VH: QIHLVQSGTEVKKPGSSVTVSCKAYGVNTFGLYAVNWVRQAPGQGLEYIGQIWRWKSSASHHFRGRVLISAVDLTGSSPPISSLEIKNVTSDDTAVYFCTTTSTYDEWSDLHHDGVMAFSSWGQGTLISVSA
VL: DIQMTQSPSTLSASIGDTVRISCRASQSITGNWVAWYHQRPGKAPRLLIYRGAALLGGVPSRFSGSAAGTDFTLTIGNLQAEDFGTFYCQQYDTYPGTFGQGTKVEVKR
With B6, the neutralization IC50 in [1] was more than 15 µg/mL; in test [2], more than 15 µg/mL; in test [3], 1.4 µg/mL; in [4], more than 15 µg/mL; in [5] it was more than 15 µg/mL; in test [6] it was more than 15 µg/mL. The neutralization IC50 in test [7] is more than 15 µg/mL; in [8], more than 15 µg/mL; in test [9] it was more than 15 µg/mL; in [10], 7.46 µg/mL; in [11] it was 1.33 µg/mL; in test [12], 4.01 µg/mL. Besides, the neutralization IC50 was 4.33 µg/mL in [13], more than 15 µg/mL in [14], 13.3 µg/mL in test [15] and more than 15 µg/mL with Env of MuLV.
